The record followed here is FireProtDB (doi:10.1021/bi0118052).

For the series the following is noted: Homo sapiens; pH 7.2; 25 °C; GdnHCl; CD; MOPS 10 mM; KCl 50 mM; reversible: yes; whole UniProt chain shown.

“And” between values parts separate entries of the source, which are not always exact repeats. Identical values can stand only once.

B1: Protein S100-B wild type, P04271 (protein)
chain: MSELEKAMVALIDVFHQYSGREGDKHKLKKSELKELINNELSHFLEEIKEQEVVDKVMETLDNDGDGECDFQEFMAFVAMVTTACHEFFEHE
For B1, the “denaturant midpoint (higher = more stable)” value is 3.2 M and 4.6 M; the unfolding free energy amounted to 17.3 kcal/mol.
